First the molecules themselves.
B1: Ab No. 1 (antibody, V domains shown)
VH: QVQLVQSGAEVKKPGASVKVSCKASGYTFTSYAMHWVRQAPGQRLEWMGWINAGTGATKYSQKFQGRVTITRDTSASTAYMELSSLRSEDTAVYYCAKDIGSGFYELSLDYWGQGTLVTVSS
VL: DIQMTQSPSSVSASVGDRVTITCRASQGISSWLAWYQQKPGKAPKLLIYAASNLQSGVPSRFSGSGSGTDFTLTISSLQPEDFATYYCQQIISLPLTFGGGTKVEIK
notes: IgG format
B2: Ab No. 11 (antibody, V domains shown)
VH: QVQLVQSGAEVKKPGSSVKVSCKASGGTFSSYAISWVRQAPGQGLEWMGGIIPISGTANYAQKFQGRVTITADESTSTAYMELSSLRSEDTAVYYCARDRGLGFPHLVWGQGTLVTVSS
VL: DIQMTQSPSSVSASVGDRVTITCRASQGISSWLAWYQQKPGKAPKLLIYAASSLQSGVPSRFSGSGSGTDFTLTISSLQPEDFATYYCQQGNSLPITFGGGTKVEIK
notes: IgG format
B3: Ab No. 28 (antibody, V domains shown)
VH: EVQLLESGGGLVQPGGSLRLSCAASGFTFSSYAMSWVRQAPGKGLEWVSAISGSGGSTYYADSVKGRFTISRDNSKNTLYLQMNSLRAEDTAVYYCVRGYRLVGILTGSHFDYWGQGTLVTVSS
VL: DIQMTQSPSTLSASVGDRVTITCRASQSIGSWLAWYQQKPGKAPKLLIYKASSLESGVPSRFSGSGSGTEFTLTISSLQPDDFATYYCQQYNILPPTFGGGTKVEIK
notes: IgG format
B4: Ab No. 27 (antibody, V domains shown)
VH: EVQLLESGGGLVQPGGSLRLSCAASGFTFSNYAMSWVRQAPGKGLEWVSAISGSGGSTYYADSVKGRFTISRDNSKNTLYLQMDSLRAEDTAVYYCASFGDIAVAGAGFVNWGQGTLVTVSS
VL: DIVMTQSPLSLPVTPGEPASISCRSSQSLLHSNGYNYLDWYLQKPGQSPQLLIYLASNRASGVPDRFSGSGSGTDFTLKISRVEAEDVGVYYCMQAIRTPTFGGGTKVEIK
notes: IgG format
B5: Ab No. 46 (antibody, V domains shown)
VH: QVQLVQSGAEVKKPGSSVKVSCKASGGTFSSYAISWVRQAPGQGLEWMGGIIPISGTTNYAQKFQGRVTITADESTSTAYMELSSLRSEDTAVYYCARHSSSWGTAITSDYWGQGTLVTVSS
VL: QSVLTQPPSVSGAPGQRVTISCTGSGSNIGAGYDVHWYQQLPGTAPKLLIYGNTNRPSGVPDRFSGSKSGTSASLAITGLQAEDEADYYCQSNDNSLRGILFGGGTKLTVL
notes: IgG format
B6: Ab No. 10 (antibody, V domains shown)
VH: QVQLVQSGAEVKKPGSSVKVSCKASGGTFSSYAISWVRQAPGQGLEWMGGIIPISGTANYAQKFQGRVTITADESTSTAYMELSSLRSEDTAVYYCARDKGGLGRGGRYWGQGTLVTVSS
VL: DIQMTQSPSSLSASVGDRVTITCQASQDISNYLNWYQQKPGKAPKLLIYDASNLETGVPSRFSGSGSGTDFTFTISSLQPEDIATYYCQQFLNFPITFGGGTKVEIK
notes: IgG format
B7: Ab No. 22 (antibody, V domains shown)
VH: QVQLVQSGAEVKKPGSSVKVSCKASGGTFSSYAISWVRQAPGQGLEWMGGIIPISGTANYAQKFQGRVTITADESTSTAYMELSSLRSEDTAVYYCVRARGIVGPDEGPWGQGTLVTVSS
VL: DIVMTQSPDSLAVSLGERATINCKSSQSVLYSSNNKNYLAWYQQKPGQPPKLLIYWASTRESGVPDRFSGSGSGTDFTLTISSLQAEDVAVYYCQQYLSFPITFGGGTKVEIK
notes: IgG format
B8: Ab No. 19 (antibody, V domains shown)
VH: QVQLVQSGAEVKKPGSSVKVSCKASGGTFSSYAISWVRQAPGQGLEWMGGIIPISGTANYAQKFQGRVTITADESTSTAYMELSSLRSEDTAVYYCARQYGTFAFYSDYWGQGTLVTVSS
VL: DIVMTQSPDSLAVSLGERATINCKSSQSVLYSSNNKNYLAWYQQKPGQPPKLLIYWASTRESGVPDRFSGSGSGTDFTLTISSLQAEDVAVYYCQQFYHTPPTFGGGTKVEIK
notes: IgG format
B9: Ab No. 16 (antibody, V domains shown)
VH: QVQLVQSGAEVKKPGSSVKVSCKASGGTFSSYAISWVRQAPGQGLEWMGGIIPISGTANYAQKFQGRVTITADESTSTAYMELSSLRSEDTAVYYCARLYHIGTTGYPYWGQGTLVTVSS
VL: DIQMTQSPSSLSASVGDRVTITCRASQSISSYLNWYQQKPGKAPKLLIYGASSLQSGVPSRFSGSGSGTDFTLTISSLQPEDFATYYCQQSYYDPTFGGGTKVEIK
notes: IgG format
B10: Ab No. 18 (antibody, V domains shown)
VH: QVQLVQSGAEVKKPGSSVKVSCKASGGTFSSYAISWVRQAPGQGLEWMGGIIPISGTANYAQKFQGRVTITADESTSTAYMELSSLRSEDTAVYYCARPEKGFTSGLVDWGQGTLVTVSS
VL: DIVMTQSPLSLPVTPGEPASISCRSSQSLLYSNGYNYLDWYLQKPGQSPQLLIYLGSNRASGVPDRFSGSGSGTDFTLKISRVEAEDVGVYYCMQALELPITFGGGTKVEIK
notes: IgG format
B11: Ab No. 23 (antibody, V domains shown)
VH: QVQLVQSGAEVKKPGSSVKVSCKASGGTFSSYAISWVRQAPGQGLEWMGGIIPISGTANYAQKFQGRVTITADESTSTAYMELSSLRSEDTAVYYCVRARGIVGPDEGPWGQGTLVTVSS
VL: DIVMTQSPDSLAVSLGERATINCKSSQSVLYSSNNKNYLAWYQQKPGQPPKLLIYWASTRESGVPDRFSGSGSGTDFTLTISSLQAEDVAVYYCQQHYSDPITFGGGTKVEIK
notes: IgG format
B12: Ab No. 14 (antibody, V domains shown)
VH: QVQLVQSGAEVKKPGSSVKVSCKASGGTFSSYAISWVRQAPGQGLEWMGGIIPISGTANYAQKFQGRVTITADESTSTAYMELSSLRSEDTAVYYCARGSLSLAAETPLWGRGTLVTVSS
VL: EIVLTQSPATLSLSPGERATLSCRASQSVSSYLAWYQQKPGQAPRLLIYDASKRATGIPARFSGSGSGTDFTLTISSLEPEDFAVYYCQQYLNFPITFGGGTKVEIK
notes: IgG format
B13: Ab No. 21 (antibody, V domains shown)
VH: QVQLVQSGAEVKKPGSSVKVSCKASGGTFSSYAISWVRQAPGQGLEWMGGIIPISGTANYAQKFQGRVTITADESTSTAYMELSSLRSEDTAVYYCTRDLGFGAIRDTWGQGTLVTVSS
VL: EIVLTQSPATLSLSPGERATLSCRASQSVSSYLAWFQQKPGQAPRLLIYDASNRATGIPARFSGSGSGTDFTLTISSLEPEDFAVYYCQQSLNLPITFGGGTKVEIK
notes: IgG format
B14: Ab No. 17 (antibody, V domains shown)
VH: QVQLVQSGAEVKKPGSSVKVSCKASGGTFSSYAISWVRQAPGQGLEWMGGVIPISGTANYAQKFQGRVTITADESTSTAYMELSSLRSEDTAVYYCARLYHLALAPAWGQGTLVTVSS
VL: EIVMTQSPATLSLSPGERATLSCRASQSVSSYLAWYQQKPGQAPRLLIYDASNRATGIPARFSGSGSGTDFTLTISSLEPEDFAVYYCQQAVNLPITFGGGTKVEIK
notes: IgG format
B15: Ab No. 2 (antibody, V domains shown)
VH: QVQLVQSGAEVKKPGASVKVSCKASGYTFTSYAMHWVRQAPGQRLEWMGWINAGTGATKYSQKFQGRVTITRDTSASTAYMELSSLRSEDTAVYYCARDLVHSYGLLPGWGQGTLVTVSS
VL: EIVLTQSPATLSLSPGERATLSCRASQSVSSYLAWYQQKPGQAPRLLIYDASNRATGIPARFSGSGSGTDFTLTISSLEPEDFAVYYCQQYSNWPFTFGGGTKVEIK
notes: IgG format
B16: Ab No. 20 (antibody, V domains shown)
VH: QVQLVQSGAEVKKPGSSVKVSCKASGGTFSSYAISWVRQAPGQGLEWMGGIIPISGTANYAQKFQGRVTITADESTSTAYMELSSLRSEDTAVYYCTRDLGFGAIRDTWGQGTLVTVSS
VL: EIVLTQSPATLSLSPGERATLSCRASQSVSSYLAWYQQKPGQAPRLLIYDASNRATGIPARFSGSGSGTDFTLTISSLEPEDFAVYYCQQSNNLPITFGGGTKVEIK
notes: IgG format
B17: Ab No. 12 (antibody, V domains shown)
VH: QVQLVQSGAEVKKPGSSVKVSCKASGGTFSSYAISWVRQAPGQGLEWMGGIIPISGTANYAQKFQGRVTITADESTSTAYMELSSLRSEDTAVYYCARGGIALHRSSSGLLWGRGTLVTVSS
VL: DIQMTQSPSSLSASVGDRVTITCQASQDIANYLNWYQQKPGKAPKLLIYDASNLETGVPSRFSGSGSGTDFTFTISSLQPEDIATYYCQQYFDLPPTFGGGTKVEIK
notes: IgG format
B18: Ab No. 13 (antibody, V domains shown)
VH: QVQLVQSGAEVKKPGSSVKVSCKASGGTFSSYAISWVRQAPGQGLEWMGGIIPISGTANYAQKFQGRVTITADESTSTAYMELSSLRSEDTAVYYCARGGIALSAGPSNIWGQGTLVTVSS
VL: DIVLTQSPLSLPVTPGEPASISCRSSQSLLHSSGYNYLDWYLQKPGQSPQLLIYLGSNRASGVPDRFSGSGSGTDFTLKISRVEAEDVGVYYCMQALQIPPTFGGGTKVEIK
notes: IgG format
B19: Ab No. 15 (antibody, V domains shown)
VH: QVQLVQSGAEVKKPGSSVKVSCKASGGTFSSYAISWVRQAPGQGLEWMGGIIPISGTANYAQKFQGRVTITADESTSTAYMELSSLRSEDTAVYYCARGSLSLVSYGPAVWGQGTLVTVSS
VL: EIVMTQSPATLSVSPGERATLSCRASQSVSSNLAWYQQKPGQAPRLLIYGASTRATGIPARFSGSGSGTEFTLTISSLQSEDFAVYYCQQYITHPPTFGGGTKVEIK
notes: IgG format
B20: Ab No. 3 (antibody, V domains shown)
VH: QVQLVQSGAEVKKPGSSVKVSCKASGGTFSSYAISWVRQAPGQGLEWMGGIIPISGTANYAQKFQGRVTITADESTSTAYMELSSLRSEDTAVYYCAKALAPGIPQWGQGTLVTVSS
VL: DIQMTQSPSSLSASVGDRVTITCRASQSISSYLNWYQQKPGKAPKLLIYAASSLQSGVPSRFSGSGSGTDFTLTISSLQPEDFATYYCQQAYDDPTFGGGTKVEIK
notes: IgG format
B21: Ab No. 4 (antibody, V domains shown)
VH: QVQLVQSGAEVKKPGSSVKVSCKASGGTFSSYAISWVRQAPGQGLEWMGGIIPISGTANYAQKFQGRVTITADESTSTAYMELSSLRSEDTAVYYCAKALAPGIPQWGQGTLVTVSS
VL: DIQMTQSPSSLSASVGDRVTITCRASQSISRYLNWYQQKPGKAPKLLIYGASSLQSGVPSRFSGSGSGTDFTLTISSLQPEDFATYYCQQAFSSPITFGGGTKVEIK
notes: IgG format
B22: Ab No. 24 (antibody, V domains shown)
VH: QITLKESGPTLVKPTQTLTLTCTFSGFSLSTSGVGVGWIRQPPGKALEWLALIYWNDDKRYSPSLKSRLTITKDTSKNQVVLTMTNMDPVDTAVYYCARSFDQGIAVWGPFDYWGQGTLVTVSS
VL: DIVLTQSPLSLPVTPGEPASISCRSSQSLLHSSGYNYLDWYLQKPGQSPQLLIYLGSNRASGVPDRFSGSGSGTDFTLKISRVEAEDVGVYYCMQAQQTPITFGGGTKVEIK
notes: IgG format
B23: Ab No. 25 (antibody, V domains shown)
VH: EVQLVESGGGLVQPGRSLRLSCAASGFTFDDYAMHWVRQAPGKGLEWVSGISWSSGSIGYADSVKGRFTISRDNAKNSLYLQMNSLRAEDTAVYYCAKAWGRVGRANYYYYGLDVWGQGTTVTVSS
VL: EIVLTQSPATLSLSPGERATLSCRASQSVSSYLAWYQQKPGQAPRLLIYDASNRATGIPARFSGSGSGTDFTLTISSLEPEDFAVYYCQQYSNFPPITFGGGTKVEIK
notes: IgG format
B24: Ab No. 26 (antibody, V domains shown)
VH: EVQLVESGGGLVQPGRSLRLSCAASGFTFDDYAMHWVRQAPGKGLEWVSGISWSSGSIGYADSVEGRFTISRDNAKNSLYLQMNSLRAEDTAVYYCAKAWGRVGRANYYYYGLDVWGQGTTVTVSS
VL: EIVLTQSPATLSLSPGERATLSCRASQSVSSYLAWYQQKPGQAPRLLIYDASNRATGIPARFSGSGSGTDFTLTISSLEPEDFAVYYCQQYANHLTFGGGTKVEIK
notes: IgG format

In this assay the target is T1, human CD28 (human, UniProt P10747 19-152, limits assumed).
T1 construct: also called Cluster of Differentiation 28; Tp44
The assay can be described thus: selection from yeast-presented synthetic human antibody libraries.
As to B1, the binding result is reported as “binds”.

For B2, the binding result is given as “binds”.

In the case of B3, the binding result was “binds”.

For B4, the binding result is recorded as “binds”.

Consider B5, for which the binding result is “binds”.

For B6, the binding result is listed as “binds”.

In the case of B7, the binding result is given as “binds”.

For the molecule B8, the binding result is listed as “binds”.

Take B9: the binding result is on record as “binds”.

Take B10: the binding result is reported as “binds”.

Take B11: the binding result is “binds”.

With B12, the binding result was “binds”.

In the case of B13, the binding result was “binds”.

For the molecule B14, the binding result is reported as “binds”.

Regarding B15, the binding result was “binds”.

Regarding B16, the binding result is recorded as “binds”.

As to B17, the binding result is “binds”.

For the molecule B18, the binding result was “binds”.

As for B19, the binding result is “binds”.

Take B20: the binding result is “binds”.

Regarding B21, the binding result is “binds”.

As to B22, the binding result was “binds”.

Turning to B23, the binding result is “binds”.

Consider B24, for which the binding result was “binds”.

These data come from patent EP4713368A1 (dated 2026).
